Literature values as cited in publication PMC9313406.

Biological target: ACE2 (dimeric) (Homo sapiens) (UniProt Q9BYF1)
Test: SPR

ACE2 (dimeric) (Homo sapiens), sequence (Q9BYF1 18-740): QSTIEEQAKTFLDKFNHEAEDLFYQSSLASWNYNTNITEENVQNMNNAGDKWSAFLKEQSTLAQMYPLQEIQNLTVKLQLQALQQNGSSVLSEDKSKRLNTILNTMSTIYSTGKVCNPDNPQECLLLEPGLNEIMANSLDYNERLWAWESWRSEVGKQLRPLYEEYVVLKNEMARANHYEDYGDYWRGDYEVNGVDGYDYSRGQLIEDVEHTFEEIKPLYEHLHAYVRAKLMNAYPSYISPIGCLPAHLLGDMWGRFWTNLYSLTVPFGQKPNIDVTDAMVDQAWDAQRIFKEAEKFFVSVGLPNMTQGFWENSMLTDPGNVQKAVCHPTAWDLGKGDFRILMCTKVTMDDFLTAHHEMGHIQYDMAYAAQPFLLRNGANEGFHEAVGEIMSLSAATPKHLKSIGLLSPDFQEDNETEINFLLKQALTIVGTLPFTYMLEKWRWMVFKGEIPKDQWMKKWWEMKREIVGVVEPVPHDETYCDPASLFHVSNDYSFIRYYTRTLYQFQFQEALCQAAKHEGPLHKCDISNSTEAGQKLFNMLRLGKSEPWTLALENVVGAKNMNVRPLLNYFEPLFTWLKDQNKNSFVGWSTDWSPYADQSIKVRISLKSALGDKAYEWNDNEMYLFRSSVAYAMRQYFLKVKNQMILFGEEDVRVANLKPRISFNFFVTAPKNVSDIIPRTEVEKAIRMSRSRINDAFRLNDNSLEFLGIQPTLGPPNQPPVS

In the case of Spike protein (from UniProt P0DTC2), the Kd is given as 0.283 nM.
